Experimental data: the nanobody polyreactivity screen of Harvey et al. (2022)

Assay: yeast display, Sf9 membrane polyspecificity reagent, FACS + sequencing; frameworks hold sequencing errors
Procedure, shortened: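 Nanobodies came from a synthetic yeast display library in Saccharomyces cerevisiae BJ5465, induced with galactose for 36–48 hours and stained for 1 hour at 4 °C with 10% biotinylated, detergent-solubilized Sf9 membrane reagent. Cells were enriched on streptavidin microbeads and then FACS-sorted, with low and high (top ~1%) gates set on anti-HA fluorescence for expression and streptavidin fluorescence for reagent binding. Each polyreactivity label reflects the gate a clone came from. Genes were amplified by colony PCR, sequenced by MiSeq 2 × 250 and filtered by CDR length.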

| Sequence | polyreactivity (PSR sort gate) |
| --- | --- |
| QVQLVESGGGLVQAGGSLRLSCAASGSIFGDNAMGWYRQAPGKERELVAAISTRGGRTYYADSVKGRFTISRDNAKNTVYLQMNSLKPEDSAVYYCATSGGRPYKYEYWGQGTQVTVSS | high polyreactivity |
| QVQLVESVGGLVQAGGSLRLSCAASGRTLGGNAMGWYRQAPGKERELVAAITNSASTYADSVKGRFTISRDNAKNTVYLQMNSLKPEDTAVYYCNAPDPSDQHGDYWGQGTQVTVSS | low polyreactivity |
| QVQLVESGGGLVQAGGSLRLSCAASGRIFTYNAMGGYRQAPGKESEFVAAISSGGSTTYADSVKGRFTISRDNAKNTVYLQMISLKPEDTAVYYCAARGWRFAIIQYEYWGQGTQVTVSS | low polyreactivity |
| QVQLVESGGGLVQAGGRLRLSCAASGSTSLYYAMGWYRQAPGKEREFVAAITWSGGSTYYADSGKGRFTITRDNAKNTVYLQMNSLKPEDTAVYYCAGRSYGYSAGYYWGQGTQVTVSS | high polyreactivity |
| QVQLVESGAGLVQAGGSLRLICAASGSTSTTYTMGWYRQAPGKERELVAAISYSGGSTYYADSVKGRFTISRDNAKNTVYLQMNSLKPEDTAVYYCAAQSFVGWREYESWGQGTQVTVSS | high polyreactivity |
| QVQLVESGGGLVQAGGSLRLSCAASGNTFPVSYTMGWYRQAPGKEREFVAVITSGGGRTYADSVKGRFTISRDTAKNTVYLQMNSLKPEDTAVYYCAVRPRVSSWKFRSRRYGYWGQGTRVTVSS | high polyreactivity |
| QVQLVESGGGLVQAGGSLRLSCAASGFTLDVNAIGWYRQAPGKERELVATISWGGASTYYADSVKGRFTISRDNAKNTVYLQMNSLKPEDTAVYYFAAQYYYPDDKGGYDYWGQGTQVTVSS | low polyreactivity |
| QVQLVESGGGLVQAGGSLRLSCAASGRPFGGNTMGWYRQAPGKERALVAAISFSGGSTYYADSVKGRFSSSRDNAKNTVYFQMNSLKPEDTAVYYCARDDYSHSFLTYDYWGQGTQVTVSS | low polyreactivity |
| QVQLVESGGGLVQAGGSLRLTCAASGSIFRYYAMGWYRQAPGKERELVATISSGGRTYYADSVKGRFTISRDNAKNTVYLQMNSLKPEDTAVYYCAAVRLTWTAKYNYWGQGTQVTVSS | high polyreactivity |
| QVQLVESGGGLVQAGGSLRLSCAASASIFYRYAMGWYRQAPGKERELVAAITRSGARTYYADSVKGRFTISRDNAKNTVYLQMNSLKPEDNAVYYCAADDPGYYQVEYWGQGTQVTVSS | high polyreactivity |
| QVQLVESGGGLVQAGGSLRLSCAASGFIFTQYTMGWYRQAPGKERELVAAISFSDSSTYYADSVKGRFTISRDNAKNTVYLEMNSLKPEDTAVYFCAADYSVTLRIGGYYWFYAFDYWGQGTQVTVSS | low polyreactivity |
| QVQLVESGGGLVQAGGSLRLSCAASGITYRWKAMGWYRQAPGKERELVAAITTRGGGTYYAVSVKGRFTISRDNAKNTVYLQMISLKPEDTAVYYCAAKKSRYPYNYWGQGTQVTVSS | high polyreactivity |
| QVQLVESGGGLVQAGGSLRLSCAASGFIFSVNAMGWYRQAPGKERELVADISCRGTSTNYADSVKGRFTISRDNAKNTVYLQMNSLKPEDTAVYYCAADGQLHMDYWGQGTQVTVSS | high polyreactivity |
| QVQFEESGGGLVQAGGSLRLSCAASGSTFQGYAMGWSRQAPGKERELVAAISSGGSTNYADSVKGRFTISRDNAKNTVYLQMNSLKPEDTAVYYCNVDLTTVGHWYYYRPGYDYWGQGTQVTVSS | low polyreactivity |
| QVQLVESGGGLVQAGGSLRLSCADSGSIFKYYAMGWYRQAPGKERELDASISWSGGTTYYADSVKGRFTISRDNAKNTVYLQMNSLKPEDTAVYYCNARWWVRYSNKYDYWGQGTQVTVSS | high polyreactivity |
| HVQLVESGGGLVQAGGSLRLSCAASGRTFVNYTMGWYRQAPGKVRELVAAIRYRDGSTYYADSVKGRFTISRDNAKKTVYLQMNSLKPEDTAVYYCNNRITQVGDYIYDYWRQGTQVTVSS | low polyreactivity |
| QLQLQESGGGLVQADGSLRLSCAASGSIFGYYYMGWYRQAPGKDRELVATINICGITNYADSVKGRFTISRDNAKNTVYLQMNSLKPDDTAVYYCAADEYAQRDLGYWGQGTQVTVSS | low polyreactivity |
| QVQLVESGGGLVQAGGSLRLSCAASGFIFWWYAMGWYRQAPGKERELVASISWSGGSTYYADSVKGRFTISRDNAKNTVYLQMNSLKPEDTAVYYCAASRARTIPGPHTNFNYWGQGTQVTVSS | high polyreactivity |
| QVQLVESGGGLFQAGGSLRLSCADYGSTFRTYVMGWYRQAPGKESEFVAAITNGISTNYADSVKGRFTISRDNAKYTFYLQMNSLKPEDTAVYYCAARVRRGSTQAQYYYWGQGTQVTVSS | high polyreactivity |
| QVQLVESGGGLVQAGGRLRLSCAASGRTIYGYDKGWYRQAPGKERELVAAINIGGRTNYADSVKGRFTISRDNAKNTVYLQMNSLKPEDTAVYYCADRYTFGPYLARSYGYWGQGTQVTVSS | low polyreactivity |
| QVQLVQSGGGLVQAGVSLRLSCAPSGFTFYKYAMGWYRQAPGKERELVAAISGSGTSTYYADSVKGRFTISRHNAKNTVYLQMNSLKPEDTAVYYCATRIVFTRRRMYSWGQGTQVNVSS | high polyreactivity |
| QVQLVESGGGLVQAGGSLRLSCAASGYIFVYYVMGWYRQAPGKERELVTAIDGNGVSTYYADSVKGRFSISRDNAKYSVYLQMNSLKPDDTAVYYCAADYLYHQTSRGKYYSWGQGTQVTVSS | low polyreactivity |

| Sequence | polyreactivity (PSR sort gate) |
| --- | --- |
| QVQLVESGRGLVQAGGSLRLSCAASGRIFHYNAMVWYRQAPRKERELVAAISGSGGSTYYADTVKGRFTISRDIAKNTVYLQMNSLKPEDTADYYCGDKRRTLGGYWGQGTQVTVSS | high polyreactivity |
| QVQLVESGGGLVQAGGSLRLSCAASGRTFFPNAMGWSRQAPGKERELVASITSRGGGTYYADSVKGRFTISRDNAKKTVYLQMNSLKPEDTAVYYCAADRYYFSPGYNWWSEGYDYWGQGTQVTVSS | low polyreactivity |
| QVQRVESGGGLVQAGGSLRLSSPASGRMGWYRQAPGKERELVAAITSGDRTNYADSVKGRFTISRDNAKNTVYLQMNSLKPEDTAVYYCATERSWYHGFIDPRGYWGQGTQVTVSS | low polyreactivity |
| QVQLVESGGGLVQAGGSLRLSCAASGSTFPVNAMGWYRQAPGKERELVARIRGSGGSTYYADSVKGRFTISRDNAKNTVYLQINSLKPEDTAVYYCAARYIGYSSYKYDYWGQGTQVTVSS | high polyreactivity |
| QVQLVESGGGLVQAGGSLRLSCAASGRTFQVNAMGWYRQAPGKERELVAAISRRGGSTYYADSVKGRFTISRDNAKNTVYLQMNSLKPEDTAVYYCAATASTYYLWRYNYWGQGTQVSVSS | high polyreactivity |
| QVQLVESGGGLVQAGGSLRLSCAASGRTFYSFNAMVCYRQAPVKERELVAAIVGDGGITYYADSVKGRFTISRDNANNTVFLQMNSLKPEDTAVYYCAAETLHSSDGEDDYWGQGTQVSVSS | low polyreactivity |
| QVQLVESGGGLVQAGGSLRLRCAASGSTFGPYVMGWYRQAPGKVRELVAVISGGSTDYADSVKGRFTISRDNAKNNVYLQINSLKPEDTAVYYCNAEYYFYLSPTVYLYDYWGQGTQVTVSS | high polyreactivity |
| QVQLVESGGGLVQAGGSLRLSCAASGFIFVRYARGWNRQAPGKERELVASITRSGGSTYYADSVKGRFTISRDNAKNTVYLQMNSLKPEDTAVYYCAASYYRSRGSTYGYWGQGTQVTVSS | high polyreactivity |
| QVQLVESGGGLVQAGGSLRLSCAASGYTFRYYAMGGYRQAPGKERELVADINSGDITNYADSVKGRFTISRDNAKNTVYLQMNSQKPEDTAVYYCAPRTFSLYDYWGQGTQVTVSS | low polyreactivity |
| QVQLVESGGGLDQAAGSLRLSCAASGSIFDAYMRWYIQAPGKERELVAGITRSGGSTYYADSVKGRFTISRDNAKIKVYLQMNSLKPEDTAVDFCAADYSSDGDYWGLGTQVTVSS | low polyreactivity |
| QVQLVESGGGLVQAGGSLRLSCAASGSTFKYYAMGWYRQAPGKERELVARISIRGGSTYYADSVKGRFTISRDNAKNTVYLQMNSLKPEDTAVYYCAAVGYFGGYRYYYWGQGTQVTVSS | high polyreactivity |
| QVQLVESGGGLVQAGGSLRLSCAASGSIFTTYAMGWYRQAPGKERELVAAISRAGDTTYADSVKGRFTISRDNAKNTVYLQRNSLKPEDTAVYYWGQGTQVTVSS | low polyreactivity |
| QVQLVESGGGLVQAGASLRLSCAASGRTFYRYAMGWYRQAPGKEREFVAAISNGGSNTRYADSVKGRFTISRDTAKNNVYFQMNSLKPEETAVYYCAARAYQHYNWGQGTQVTVSS | high polyreactivity |
| QVQLVESGGGLVQAGGSLRLSCAASGRIFAVYAMGWYRQAPGKERELVAAINNGASTNYADSVKGRFTISRDNAKNTVYLQMNSLKPEDTAVYYCAAYGYWGQGTQVTVSS | high polyreactivity |
| QVQLQESGSGLVQAGGSLRLSCAASGNISHYNDMGWYRQAPGKEREPVATINSGSITYYADSVKGRFTISRDNAKNTVYLQMNSLKPEDTAVYYCAVKQHGYFYLDYWGQGTQVTVSS | high polyreactivity |
| QVQLVESGGGLVHAGGSLRLSCAASGSTFPGYAMGWYRQAPGKERELVAAISKRGGSTRYADSVKGRFTISRDNANNTVYLQMNSLKPEDTAVYYCAASYSYSGSGGGYWGQGTQVTVSS | high polyreactivity |
| QVQLVESGGGLVQAGGSLRLSCAASGSTFVSYDMGWYRQAPGKERELVADISWSGVSTYADSVKGRFTISRDNAKNTVYLQMNSLKPEDTAVYYCATDDARRGYGYGYWGQGTQVTVSS | low polyreactivity |
| QVQLVESGGGLVQAGGSLRLSCAASGSTFYRYTMGWYRQAPGTERELVSAISRSGGSTYYADSVKGRFTISRDNAKNTVYLQMNSLKPEDTAVYYCATYGDFKSGYRYGYWGQGTQVTVSS | high polyreactivity |
| QVQLVESGGGLVQAGGSLRLSCAASGRTFGSYAMGWNRQAPGKERELVAAISSSGGRTYYADSVKGRFTISRDNAKNTVYLQMNSLKPEDTGVYYCNADVQWNIWEYDYWGQGTQVTVSS | high polyreactivity |
| QVQLVESGGGLVQAGGSLRLSCAASGRILGDYAMGWYRQAPGTEREFVAAIDYNGGSTNYADSVMGRFTISRDNAKNTVYFQMNSLKPEDTAVYYCAKTDGFYRGYGYWGQGTQVTVSS | low polyreactivity |
| QVQLVETGGGLVQAGGTLRLSCAPSGYTIYFYALGWDIQAPGTERELVAAISGSGGRTYYADSVKGRFTISRDNAKNTVYLQMNSLKPEDTAVYYCAARKYKRIYRISSGIGYYWGQGTQVTVSS | high polyreactivity |
